B1: N-terminal His6-tagged RNase E residues 696-762 (domain or fragment, E. coli, UniProt P21513 696-762, looked up)
chain: ALNVEEQSVQETEQEERVRPVQPRRKQRQLNQKVRYEQSVAEEAVVAPVVEETVAAEPIVQEAPAPR
notes: Cloned BamHI/SalI in the first cloning site of pRSF-Duet-1; also called RNase E peptide; source: E. coli, pRSF-Duet-1, purified (Ni-NTA, S200); also co-expressed with RhlB from pRneRhlB in E. coli BL21(DE3), co-purified (Ni-NTA, SP, S200); not shown: His6, N-terminal, kept
B2: Escherichia coli DEAD box RNA helicase RhlB, wild type (enzyme, E. coli, UniProt P0A8J8 1-421, looked up)
chain: MSKTHLTEQKFSDFALHPKVVEALEKKGFHNCTPIQALALPLTLAGRDVAGQAQTGTGKTMAFLTSTFHYLLSHPAIADRKVNQPRALIMAPTRELAVQIHADAEPLAEATGLKLGLAYGGDGYDKQLKVLESGVDILIGTTGRLIDYAKQNHINLGAIQVVVLDEADRMYDLGFIKDIRWLFRRMPPANQRLNMLFSATLSYRVRELAFEQMNNAEYIEVEPEQKTGHRIKEELFYPSNEEKMRLLQTLIEEEWPDRAIIFANTKHRCEEIWGHLAADGHRVGLLTGDVAQKKRLRILDEFTRGDLDILVATDVAARGLHIPAVTHVFNYDLPDDCEDYVHRIGRTGRAGASGHSISLACEEYALNLPAIETYIGHSIPVSKYNPDALMTDLPKPLRLTRPRTGNGPRRTGAPRNRRRSG
notes: The same untagged protein from two vectors (pET11a alone; second cloning site of pRSF-Duet-1, NdeI/XhoI, in pRneRhlB); also called WT RhlB; Helicase B; source: E. coli BL21(DE3), pET11a, purified (published procedure plus S200 size exclusion)

Legend:
[1] = target: RNase E 628-843 (Escherichia coli) (UniProt P21513); settings: cited from earlier work
RNase E 628-843 (Escherichia coli), sequence (P21513 628-843): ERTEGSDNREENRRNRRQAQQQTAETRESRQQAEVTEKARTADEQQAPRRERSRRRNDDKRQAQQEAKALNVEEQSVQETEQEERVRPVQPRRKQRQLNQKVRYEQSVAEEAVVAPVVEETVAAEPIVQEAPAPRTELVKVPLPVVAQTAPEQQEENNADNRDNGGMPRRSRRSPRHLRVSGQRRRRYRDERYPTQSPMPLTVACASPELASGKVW

[2] = target: RhlB S381A (E. coli)
[3] = target: B2; assay: ITC; 300 uM RNase E-(696-762) in the syringe titrated into 20 uM WT RhlB or variant in the cell; 25 C; 50 mM potassium phosphate pH 7.4, 100 mM NaCl, 1 mM dithiothreitol (methods; the table's caption says 100 mM KPi, 50 mM NaCl); 1:1 model; Ka are lower limits; settings: both partners purified
[4] = target: B2; assay: native MS; nanoflow ESI under non-dissociating conditions; co-expressed complex after size exclusion chromatography, 5-20 uM, 250 mM ammonium acetate; MS/MS of the +15 ion; settings: both partners purified
[5] = target: RhlB S381A (E. coli); assay: ITC; 300 uM RNase E-(696-762) in the syringe titrated into 20 uM WT RhlB or variant in the cell; 25 C; 50 mM potassium phosphate pH 7.4, 100 mM NaCl, 1 mM dithiothreitol (methods; the table's caption says 100 mM KPi, 50 mM NaCl); 1:1 model; Ka are lower limits
[6] = target: RhlB H320D (E. coli); assay: as above
[7] = target: B1; assay: SEC; co-expressed in E. coli from a di-cistronic vector; His6-RNase E-(696-762) held on Ni-NTA, then SP column and S200 size exclusion; fractions on SDS-PAGE; settings: partners not purified

Molecule: RhlB (from UniProt P0A8J8)
- Kd [1]: 50 nM

Molecule: B1
- ATPase activity of S381A RhlB with RNase E-(696-762) and bulk S. cerevisiae RNA (S381A RhlB alone: ≤0.5) (mol Pi/min/mol protein) [2]: 9.4
- Ka [3]: ≥ 1.1e+08 M⁻¹
- dH [3]: -27.6 kcal/mol
- stoichiometry N [3]: 0.92
- stoichiometry N [4]: 1
- Ka [5]: > 8e+07 M⁻¹
- dH [5]: -23.3 kcal/mol
- stoichiometry N [5]: 1.2
- Ka [6]: > 7e+07 M⁻¹
- dH [6]: -29 kcal/mol
- stoichiometry N [6]: 0.83

Molecule: B2
- stoichiometry N [7]: ~1

— PMC7611231, “Allosteric Activation of the ATPase Activity of the Escherichia coli RhlB RNA Helicase*” (The Journal of biological chemistry, 2007)
